According to article PMC9394474 (2022):
Read-outs that look alike come from different tables or passages of the source. Ends that are not written are not given here.

B1: rbGYG1 322-333 peptide (peptide)
peptide: DNIKKKLDTYLQ
B2: N-terminal acetylated LQ (peptide)
peptide: Ac-Leu-Gln

Columns and labels:
human hisTRIM7- [1] = target: T1, human hisTRIM7- (human, UniProt Q9C029 342-511); test: ITC
human hisTRIM7- [2] = target: T1, human hisTRIM7-; test: ITC; remark: listed apart in the source

| Binder | Kd (human hisTRIM7- [1]) | Kd (human hisTRIM7- [2]) |
| --- | --- | --- |
| B1 | 21.1 µM |  |
| B2 |  | 144 µM |
